Key:
[1] = test system: Ac-Asp-Glu-Ala-Asp-aldehyde (Ac-DEAD-CHO)
[2] = biological target: T1, DFF-40, 40-kDa subunit of DNA Fragmentation Factor (DFF), purified from HeLa cell S-100 (UniProt O76075)
T1 sequence: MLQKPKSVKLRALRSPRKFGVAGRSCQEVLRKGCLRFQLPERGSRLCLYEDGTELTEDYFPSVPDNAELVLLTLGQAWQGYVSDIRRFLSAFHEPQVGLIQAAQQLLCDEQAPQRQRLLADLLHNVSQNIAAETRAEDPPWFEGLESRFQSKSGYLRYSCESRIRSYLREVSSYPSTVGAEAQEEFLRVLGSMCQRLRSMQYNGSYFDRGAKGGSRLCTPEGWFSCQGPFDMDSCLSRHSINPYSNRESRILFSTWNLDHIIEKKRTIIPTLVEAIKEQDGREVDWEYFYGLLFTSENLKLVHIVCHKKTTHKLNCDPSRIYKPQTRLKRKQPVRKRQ

[3] = test system: DFF-45, 45-kDa subunit of DNA Fragmentation Factor (DFF), purified from HeLa cell S-100
[4] = test system: lamin B1 in co-incubated nuclei
[5] = test system: poly(ADP-ribose) polymerase (PARP) in co-incubated nuclei
[6] = test system: recombinant DFF-45 fusion protein with a six-histidine tag at the NH2-terminus

## active recombinant caspase-3
[1]
  cleavage of PARP and lamin B1 in co-incubated nuclei (immunoblot): Ac-DEAD SEQ ID NO:6-CHO still blocked the cleavage of both PARP and lamin B1 in the co-incubated nuclei
[2]
  cleavage of biotinylated DFF (SDS-PAGE, streptavidin-peroxidase chemiluminescence): the 40-kDa subunit remained intact
[3]
  cleavage of biotinylated DFF (SDS-PAGE, streptavidin-peroxidase chemiluminescence): Incubation with caspase-3 resulted in the cleavage of the 45-kDa subunit into fragments of molecular masses of 30 kDa and 11 kDa
[4]
  time course of lamin B1 cleavage in nuclei (immunoblot): the rate of Lamin B1 cleavage by caspase-3 remained the same with or without DFF
[5]
  rate of PARP cleavage in nuclei (immunoblot): The same conclusion was obtained when the rate of cleavage of PARP was measured
[6]
  cleavage of the purified fusion protein (SDS-PAGE): Incubation of this fusion protein with caspase-3 resulted in its cleavage into three fragments of 30 kDa, 18 kDa and 11 kDa at the early time point

— patent US6515118
